One experiment deals with FcγRI (CD64) (human) (UniProt P12314). Kind of experiment: SPR, His-captured FcγRI, antibody analyte, 1:1 model, PBST pH 7.4. (Surface plasmon resonance follows binding to a sensor surface in real time, without labels.)
The next experiment deals with FcRn (human) (UniProt P55899). Put plainly: SPR, antibody immobilised, FcRn analyte, steady state model, pH 6.0.
The target in experiment [1] is FcγRIIb/c (CD32b/c) (human) (UniProt P31994). Put plainly: SPR, His-captured FcγRIIb/c, antibody analyte, steady state model, HBS-EP+.
In experiment [2] the target is FcγRIIIa F158 (CD16a) (human) (UniProt P08637). Kind of experiment: SPR, His-captured FcγRIIIa F158, antibody analyte, steady state model, HBS-EP+ (FIG. 31).
In another experiment the target is FcγRIIIb (CD16b) (human) (UniProt O75015). Kind of experiment: SPR, His-captured FcγRIIIb (CD16b), antibody analyte, steady state model, HBS-EP+ (legend of FIG. 32; receptor printed as FcγRIIIa).
For experiment [3], the target named is Human EpCAM expressed on cells (CHO-hEpCAM, HCT116) (human) (UniProt P16422). Kind of experiment: flow cytometry of HCT116 cells stained with PE anti-hEpCAM clone 9C4, quantified with the QuantiBrite PE bead standard curve. (In general: A flow cytometer gives signals particle by particle.)
Experiment [4] shares this target. Kind of experiment: flow cytometry of CHO-hEpCAM cells stained with PE anti-hEpCAM clone 9C4, quantified with the QuantiBrite PE bead standard curve.
Experiment [5] has as its target Cynomolgus EpCAM expressed on CHO cells (cynomolgus monkey). Put plainly: flow cytometry of CHO-cynoEpCAM cells stained with PE anti-hEpCAM clone 9C4, quantified with the QuantiBrite PE bead standard curve.

In general, Kd refers to the constant that tells how readily two partners part at equilibrium. A low value points to tighter binding.

Human EpCAM expressed on cells (CHO-hEpCAM, HCT116) (human), sequence (P16422 24-314): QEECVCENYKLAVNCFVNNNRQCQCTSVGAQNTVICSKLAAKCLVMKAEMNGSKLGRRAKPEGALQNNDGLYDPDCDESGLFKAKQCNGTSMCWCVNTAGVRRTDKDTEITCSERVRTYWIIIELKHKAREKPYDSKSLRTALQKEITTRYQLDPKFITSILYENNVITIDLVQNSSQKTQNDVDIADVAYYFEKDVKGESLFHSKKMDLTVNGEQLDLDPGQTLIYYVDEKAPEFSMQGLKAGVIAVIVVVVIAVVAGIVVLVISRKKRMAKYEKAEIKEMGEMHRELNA
FcRn (human), sequence (P55899 24-297 limits assumed, chain 1 of 2): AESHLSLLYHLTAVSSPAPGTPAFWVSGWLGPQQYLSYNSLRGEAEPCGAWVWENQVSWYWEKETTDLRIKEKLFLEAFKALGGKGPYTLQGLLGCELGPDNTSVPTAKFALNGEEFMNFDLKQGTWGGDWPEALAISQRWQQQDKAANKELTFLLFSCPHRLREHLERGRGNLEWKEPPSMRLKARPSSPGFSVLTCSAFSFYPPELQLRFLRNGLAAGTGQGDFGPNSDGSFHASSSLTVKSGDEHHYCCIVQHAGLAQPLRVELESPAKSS
FcRn (human), sequence (chain, as listed by the source limits assumed, chain 2 of 2): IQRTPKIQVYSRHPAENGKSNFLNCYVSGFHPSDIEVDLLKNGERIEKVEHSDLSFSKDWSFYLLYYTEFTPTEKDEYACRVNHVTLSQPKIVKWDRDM
FcγRIIIb (CD16b) (human), sequence (O75015 17-200 limits assumed): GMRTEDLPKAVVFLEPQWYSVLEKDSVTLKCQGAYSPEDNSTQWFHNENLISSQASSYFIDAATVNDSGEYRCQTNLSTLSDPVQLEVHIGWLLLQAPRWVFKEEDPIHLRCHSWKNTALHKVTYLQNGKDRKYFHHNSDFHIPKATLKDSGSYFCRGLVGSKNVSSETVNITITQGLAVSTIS
Cynomolgus EpCAM expressed on CHO cells (cynomolgus monkey), sequence (Q1WER1 24-314): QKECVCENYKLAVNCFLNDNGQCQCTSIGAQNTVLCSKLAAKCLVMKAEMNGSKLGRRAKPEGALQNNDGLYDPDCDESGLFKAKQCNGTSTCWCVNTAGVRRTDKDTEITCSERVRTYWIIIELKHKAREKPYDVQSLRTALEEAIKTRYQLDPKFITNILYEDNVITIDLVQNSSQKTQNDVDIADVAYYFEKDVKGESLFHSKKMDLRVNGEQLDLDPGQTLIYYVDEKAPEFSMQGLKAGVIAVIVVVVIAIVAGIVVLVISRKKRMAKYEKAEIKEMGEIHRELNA
FcγRIIb/c (CD32b/c) (human), sequence (P31994 43-217): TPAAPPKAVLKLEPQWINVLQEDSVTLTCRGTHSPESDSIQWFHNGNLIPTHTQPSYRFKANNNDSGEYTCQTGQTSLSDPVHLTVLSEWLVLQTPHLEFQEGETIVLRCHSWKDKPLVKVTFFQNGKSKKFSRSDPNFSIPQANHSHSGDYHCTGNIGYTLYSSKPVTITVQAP
FcγRI (CD64) (human), sequence (P12314 16-292): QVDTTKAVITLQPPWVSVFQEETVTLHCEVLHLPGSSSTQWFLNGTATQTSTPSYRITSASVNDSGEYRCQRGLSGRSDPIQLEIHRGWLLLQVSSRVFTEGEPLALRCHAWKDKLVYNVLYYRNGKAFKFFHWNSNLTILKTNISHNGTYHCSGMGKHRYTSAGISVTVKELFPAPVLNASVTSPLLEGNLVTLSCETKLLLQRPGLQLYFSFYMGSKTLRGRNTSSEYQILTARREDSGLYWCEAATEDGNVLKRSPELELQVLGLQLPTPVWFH
FcγRIIIa F158 (CD16a) (human), sequence (P08637 17-208): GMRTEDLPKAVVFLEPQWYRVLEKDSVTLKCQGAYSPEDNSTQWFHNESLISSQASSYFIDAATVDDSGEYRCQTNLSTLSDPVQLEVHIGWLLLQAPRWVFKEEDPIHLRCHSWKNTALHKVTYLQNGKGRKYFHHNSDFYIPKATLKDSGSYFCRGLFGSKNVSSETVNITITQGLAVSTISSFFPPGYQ

For the substance IgG1-ctrl mAb (antibody), the Kd came out at 0.00118 µM in the experiment with FcγRI (CD64) (human); 0.366 µM with FcRn (human); 4.2 µM in experiment [1]; 0.86 µM in experiment [2]; 6.5 µM with FcγRIIIb (CD16b) (human).

Regarding “Mouse anti-hEpCAM conjugated to PE, clone 9C4 (antibody)”, the Antibody per cell (Antibody per cell) was found to be 412000 in experiment [3], 194000 in experiment [4] and 231000 in experiment [5].
